According to patent publication US20080118499:

Target: T1, in vitro translated GGA3 wild type (from HA-GGA3 pcDNA4 plasmid), Q9NZ52
T1 chain: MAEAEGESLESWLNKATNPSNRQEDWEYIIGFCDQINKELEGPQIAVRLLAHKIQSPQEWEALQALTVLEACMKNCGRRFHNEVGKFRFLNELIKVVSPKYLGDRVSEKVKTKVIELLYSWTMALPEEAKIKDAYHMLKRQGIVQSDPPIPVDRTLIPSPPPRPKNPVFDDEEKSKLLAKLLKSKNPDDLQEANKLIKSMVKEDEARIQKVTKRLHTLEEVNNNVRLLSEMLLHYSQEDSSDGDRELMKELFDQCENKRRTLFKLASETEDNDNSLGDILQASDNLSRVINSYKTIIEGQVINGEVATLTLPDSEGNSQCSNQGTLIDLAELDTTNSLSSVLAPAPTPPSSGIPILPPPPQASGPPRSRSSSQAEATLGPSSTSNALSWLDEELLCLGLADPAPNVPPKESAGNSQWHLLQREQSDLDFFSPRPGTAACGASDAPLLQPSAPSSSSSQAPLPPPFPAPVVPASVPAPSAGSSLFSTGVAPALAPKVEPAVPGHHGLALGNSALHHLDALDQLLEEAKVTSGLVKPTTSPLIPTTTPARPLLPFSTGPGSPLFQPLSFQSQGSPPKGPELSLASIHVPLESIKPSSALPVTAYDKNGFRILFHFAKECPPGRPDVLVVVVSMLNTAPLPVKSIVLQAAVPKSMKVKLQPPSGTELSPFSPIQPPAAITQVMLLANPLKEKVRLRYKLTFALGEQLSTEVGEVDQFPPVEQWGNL

B1: recombinant caspase 3 (Pharmingen) (protein)
chain: SGISLDNSYKMDYPEMGLCIIINNKNFHKSTGMTSRSGTDVDAANLRETFRNLKYEVRNKNDLTREEIVELMRDVSKEDHSKRSSFVCVLLSHGEEGIIFGTNGPVDLKKITNFFRGDRCRSLTGKPKLFIIQACRGTELDCGIETDSGVDDDMACHKIPVEADFLYAYSTAPGYYSWRNSKDGSWFIQSLCAMLKQYADKLEFMHILTRVNRKVATEFESFSFDATFHAKKQIPCIVSMLTKELYFYH
- cleavage of in vitro translated GGA3 (cold methionine), Western blot with anti-GGA3 antibody: recombinant caspase 3 cleaves in vitro translated GGA3 (cold methionine) in three fragments
- cleavage of in vitro translated [35S]-methionine-labeled GGA3 (SDS-PAGE, phosphorimager): Recombinant caspase 3 cleaved in vitro translated GGA3 in several fragments
